Measurements taken from patent US20200339676A1 (University of California, published 2020).

Legend:
[1] = target: Endogenous NOTCH1 (MDA-MB-231 cell lysate) (UniProt P46531 19-2555, limits assumed); test: co-immunoprecipitation of endogenous proteins, MDA-MB-231 lysates, Western blot
Experimental: (§1) Notch receptor activation can be regulated through direct interactions with binding partners²⁴. […] To address this possibility, co-immunoprecipitation experiments were performed using MBA-MD-231 cells lysates, which express detectable levels of all four Notch receptors (NOTCH1-4). Endogenous ROBO1 co-immunoprecipitated with NOTCH4, but not […], NOTCH2 or NOTCH3 (FIG. 3H and data not shown). Next, the expression and subcellular localization of the NOTCH4 intracellular domain (N4-ICD) and HES1 was examined in control (Scr) and Robo1 (siR1) knockdown HC11 cells. Expression of Robo1 was inhibited in HC11 cells that were then primed for differentiation as described above. […] This effect was not observed in control Robo1 knockdown cells engineered to overexpress Robo1 (siR1+o/e) or cells treated with the γ-secretase inhibitor GSI (siR1+GSI) (FIGS. 3I-3K).
(§2) Adherent cells were lysed in 1 mL of 1× lysis buffer ([…] NaCl, 10 mM Tris-HCl pH8, […] EDTA, 1 mM sodium orthovanadate) supplemented with 1 percent Igepal NP40 (Sigma), 1 mM phenylmethanesulfonylfluoride (PMSF), 1 mM leupeptin, 1 mM aprotinin, and phosphatase inhibitors (Roche Complete). Cell lysate was incubated for 15 minutes at 4° C. with gentle rocking followed by centrifugation at 12,000 rpms for 10 minutes. […]

[2] = target: Endogenous NOTCH2 (MDA-MB-231 cell lysate) (UniProt Q04721 26-2471, limits assumed); test: co-immunoprecipitation of endogenous proteins, MDA-MB-231 lysates (data not shown)
Chain of Endogenous NOTCH2 (MDA-MB-231 cell lysate) (Q04721 26-2471 limits assumed): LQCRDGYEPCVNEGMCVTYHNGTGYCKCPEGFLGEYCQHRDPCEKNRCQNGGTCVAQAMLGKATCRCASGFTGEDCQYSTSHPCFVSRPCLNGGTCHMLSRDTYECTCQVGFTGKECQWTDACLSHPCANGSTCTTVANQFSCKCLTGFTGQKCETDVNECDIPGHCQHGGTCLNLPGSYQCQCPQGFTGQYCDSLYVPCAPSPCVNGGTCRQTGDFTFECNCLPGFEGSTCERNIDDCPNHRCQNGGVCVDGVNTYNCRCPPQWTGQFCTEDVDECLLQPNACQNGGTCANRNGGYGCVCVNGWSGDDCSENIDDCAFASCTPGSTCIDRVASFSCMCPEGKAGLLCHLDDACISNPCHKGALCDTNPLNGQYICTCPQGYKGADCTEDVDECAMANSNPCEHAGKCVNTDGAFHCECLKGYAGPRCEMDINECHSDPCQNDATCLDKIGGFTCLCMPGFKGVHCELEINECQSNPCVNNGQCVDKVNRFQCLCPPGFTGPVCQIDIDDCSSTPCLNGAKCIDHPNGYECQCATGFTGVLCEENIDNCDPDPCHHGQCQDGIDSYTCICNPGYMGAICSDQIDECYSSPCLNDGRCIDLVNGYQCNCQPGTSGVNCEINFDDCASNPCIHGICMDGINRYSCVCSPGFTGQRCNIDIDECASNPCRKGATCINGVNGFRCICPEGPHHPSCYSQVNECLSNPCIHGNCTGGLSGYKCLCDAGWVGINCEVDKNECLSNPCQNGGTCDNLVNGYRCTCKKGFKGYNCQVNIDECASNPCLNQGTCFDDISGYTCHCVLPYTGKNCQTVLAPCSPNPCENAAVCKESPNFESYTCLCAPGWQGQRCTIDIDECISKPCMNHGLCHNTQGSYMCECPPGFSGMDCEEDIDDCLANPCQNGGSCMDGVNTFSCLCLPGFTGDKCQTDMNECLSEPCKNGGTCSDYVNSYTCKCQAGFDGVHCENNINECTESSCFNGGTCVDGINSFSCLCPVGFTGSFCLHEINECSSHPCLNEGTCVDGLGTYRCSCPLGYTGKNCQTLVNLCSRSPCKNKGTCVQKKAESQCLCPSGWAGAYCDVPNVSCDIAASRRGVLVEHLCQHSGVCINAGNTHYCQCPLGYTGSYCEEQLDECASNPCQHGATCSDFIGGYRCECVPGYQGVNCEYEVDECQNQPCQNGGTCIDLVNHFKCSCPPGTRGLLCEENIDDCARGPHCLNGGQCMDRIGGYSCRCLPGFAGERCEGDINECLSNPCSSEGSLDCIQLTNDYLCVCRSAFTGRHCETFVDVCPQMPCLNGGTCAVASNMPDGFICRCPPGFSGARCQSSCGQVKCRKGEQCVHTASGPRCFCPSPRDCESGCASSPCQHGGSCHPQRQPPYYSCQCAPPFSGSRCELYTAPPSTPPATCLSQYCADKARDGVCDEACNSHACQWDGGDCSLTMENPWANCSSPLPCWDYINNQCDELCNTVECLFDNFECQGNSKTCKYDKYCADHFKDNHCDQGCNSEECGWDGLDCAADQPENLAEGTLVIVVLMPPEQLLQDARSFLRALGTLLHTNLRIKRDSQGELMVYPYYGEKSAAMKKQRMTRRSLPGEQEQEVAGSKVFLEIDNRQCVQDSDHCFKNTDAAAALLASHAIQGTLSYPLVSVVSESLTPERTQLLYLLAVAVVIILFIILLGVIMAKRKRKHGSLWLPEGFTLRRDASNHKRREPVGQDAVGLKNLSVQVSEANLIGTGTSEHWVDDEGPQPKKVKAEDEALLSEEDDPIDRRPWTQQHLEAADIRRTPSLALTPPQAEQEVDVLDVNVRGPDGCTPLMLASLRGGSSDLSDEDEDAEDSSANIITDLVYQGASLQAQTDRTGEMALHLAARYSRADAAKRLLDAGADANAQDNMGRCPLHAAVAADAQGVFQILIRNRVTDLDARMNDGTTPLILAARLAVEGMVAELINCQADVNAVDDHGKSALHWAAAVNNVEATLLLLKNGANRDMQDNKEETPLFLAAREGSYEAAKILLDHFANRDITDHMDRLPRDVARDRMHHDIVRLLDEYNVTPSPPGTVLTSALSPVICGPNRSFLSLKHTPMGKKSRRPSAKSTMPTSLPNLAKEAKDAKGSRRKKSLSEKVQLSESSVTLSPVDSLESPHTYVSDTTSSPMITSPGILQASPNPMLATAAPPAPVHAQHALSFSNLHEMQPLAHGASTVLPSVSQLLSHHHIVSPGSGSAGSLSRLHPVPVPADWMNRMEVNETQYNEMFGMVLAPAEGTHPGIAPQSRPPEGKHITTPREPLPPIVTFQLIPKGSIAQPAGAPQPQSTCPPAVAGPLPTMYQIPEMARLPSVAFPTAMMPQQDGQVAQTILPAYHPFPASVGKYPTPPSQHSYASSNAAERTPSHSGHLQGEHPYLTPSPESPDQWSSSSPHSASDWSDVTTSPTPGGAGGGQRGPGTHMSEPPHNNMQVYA
Experimental: as §1, §2

[3] = target: Endogenous NOTCH3 (MDA-MB-231 cell lysate) (UniProt Q9UM47 40-2321, limits assumed); test: as above
Experimental: as §1, §2

Chain of Endogenous NOTCH1 (MDA-MB-231 cell lysate) (P46531 19-2555 limits assumed): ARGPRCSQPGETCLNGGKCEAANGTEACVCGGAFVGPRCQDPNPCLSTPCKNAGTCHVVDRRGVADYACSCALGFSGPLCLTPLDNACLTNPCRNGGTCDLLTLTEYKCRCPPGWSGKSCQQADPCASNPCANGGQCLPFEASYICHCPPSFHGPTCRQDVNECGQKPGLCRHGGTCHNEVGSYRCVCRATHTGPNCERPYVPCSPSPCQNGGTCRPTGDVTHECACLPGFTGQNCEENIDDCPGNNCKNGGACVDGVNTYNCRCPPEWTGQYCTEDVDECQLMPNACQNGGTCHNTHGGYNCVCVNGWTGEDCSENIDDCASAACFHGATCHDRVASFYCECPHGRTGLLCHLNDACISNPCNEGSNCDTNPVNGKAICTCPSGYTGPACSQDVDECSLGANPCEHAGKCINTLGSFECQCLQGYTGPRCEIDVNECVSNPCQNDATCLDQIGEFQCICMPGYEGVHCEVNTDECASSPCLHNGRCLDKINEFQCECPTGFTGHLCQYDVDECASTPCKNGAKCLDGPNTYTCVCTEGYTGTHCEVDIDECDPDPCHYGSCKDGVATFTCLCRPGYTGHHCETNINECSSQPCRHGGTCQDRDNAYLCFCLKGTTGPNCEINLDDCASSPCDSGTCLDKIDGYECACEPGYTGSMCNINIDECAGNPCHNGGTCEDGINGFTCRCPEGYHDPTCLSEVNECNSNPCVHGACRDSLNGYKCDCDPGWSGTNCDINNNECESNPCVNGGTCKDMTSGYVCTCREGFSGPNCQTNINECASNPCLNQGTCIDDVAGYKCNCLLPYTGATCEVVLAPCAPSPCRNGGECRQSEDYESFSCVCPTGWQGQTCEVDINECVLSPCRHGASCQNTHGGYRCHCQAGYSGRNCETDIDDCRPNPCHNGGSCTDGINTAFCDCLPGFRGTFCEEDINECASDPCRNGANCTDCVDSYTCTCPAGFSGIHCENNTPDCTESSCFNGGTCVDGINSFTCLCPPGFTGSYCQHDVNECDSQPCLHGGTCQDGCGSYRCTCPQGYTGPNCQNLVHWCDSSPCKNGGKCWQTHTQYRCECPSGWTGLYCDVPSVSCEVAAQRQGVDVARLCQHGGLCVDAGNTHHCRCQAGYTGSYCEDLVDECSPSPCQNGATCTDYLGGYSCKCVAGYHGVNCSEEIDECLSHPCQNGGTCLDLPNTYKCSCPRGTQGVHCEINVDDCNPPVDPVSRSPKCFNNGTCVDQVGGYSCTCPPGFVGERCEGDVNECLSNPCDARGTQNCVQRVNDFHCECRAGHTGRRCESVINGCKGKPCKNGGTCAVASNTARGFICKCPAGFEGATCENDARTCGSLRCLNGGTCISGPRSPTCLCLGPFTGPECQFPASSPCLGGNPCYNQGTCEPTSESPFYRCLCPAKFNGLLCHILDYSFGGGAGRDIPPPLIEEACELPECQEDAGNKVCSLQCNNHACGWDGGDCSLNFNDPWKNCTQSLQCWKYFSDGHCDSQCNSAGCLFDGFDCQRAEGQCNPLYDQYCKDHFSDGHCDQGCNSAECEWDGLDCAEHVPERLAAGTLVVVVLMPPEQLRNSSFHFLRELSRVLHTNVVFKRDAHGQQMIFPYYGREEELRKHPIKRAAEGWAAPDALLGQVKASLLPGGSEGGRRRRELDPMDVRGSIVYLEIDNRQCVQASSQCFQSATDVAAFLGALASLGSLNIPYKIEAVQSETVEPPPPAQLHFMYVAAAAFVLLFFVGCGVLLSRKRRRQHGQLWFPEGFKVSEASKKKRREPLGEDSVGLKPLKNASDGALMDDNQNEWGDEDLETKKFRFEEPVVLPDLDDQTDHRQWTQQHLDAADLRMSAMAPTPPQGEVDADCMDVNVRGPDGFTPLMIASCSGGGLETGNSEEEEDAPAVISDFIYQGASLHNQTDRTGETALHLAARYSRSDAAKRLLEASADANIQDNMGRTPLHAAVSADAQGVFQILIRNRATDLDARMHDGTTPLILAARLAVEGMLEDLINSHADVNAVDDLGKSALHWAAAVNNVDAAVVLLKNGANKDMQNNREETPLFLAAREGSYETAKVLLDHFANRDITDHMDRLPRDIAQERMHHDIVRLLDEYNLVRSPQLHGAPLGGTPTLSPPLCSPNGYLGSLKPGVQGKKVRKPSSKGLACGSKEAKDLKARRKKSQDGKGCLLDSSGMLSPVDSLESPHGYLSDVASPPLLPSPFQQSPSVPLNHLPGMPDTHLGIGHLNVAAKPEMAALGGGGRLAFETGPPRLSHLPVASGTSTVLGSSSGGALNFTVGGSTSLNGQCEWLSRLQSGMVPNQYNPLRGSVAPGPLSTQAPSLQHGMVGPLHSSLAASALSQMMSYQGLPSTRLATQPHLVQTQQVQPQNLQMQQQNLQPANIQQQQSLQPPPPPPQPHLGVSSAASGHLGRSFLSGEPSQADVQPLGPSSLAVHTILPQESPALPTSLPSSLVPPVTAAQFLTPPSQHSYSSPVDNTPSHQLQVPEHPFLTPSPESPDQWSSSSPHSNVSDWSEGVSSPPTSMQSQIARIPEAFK

binding result [1]: no binding | binding result [2]: no binding | binding result [3]: no binding
B1: Endogenous ROBO1 (MDA-MB-231 and HEK293 cell lysates) (receptor, UniProt Q9Y6N7 26-1651, looked up)
chain: QLIPDPEDVERGNDHGTPIPTSDNDDNSLGYTGSRLRQEDFPPRIVEHPSDLIVSKGEPATLNCKAEGRPTPTIEWYKGGERVETDKDDPRSHRMLLPSGSLFFLRIVHGRKSRPDEGVYVCVARNYLGEAVSHNASLEVAILRDDFRQNPSDVMVAVGEPAVMECQPPRGHPEPTISWKKDGSPLDDKDERITIRGGKLMITYTRKSDAGKYVCVGTNMVGERESEVAELTVLERPSFVKRPSNLAVTVDDSAEFKCEARGDPVPTVRWRKDDGELPKSRYEIRDDHTLKIRKVTAGDMGSYTCVAENMVGKAEASATLTVQEPPHFVVKPRDQVVALGRTVTFQCEATGNPQPAIFWRREGSQNLLFSYQPPQSSSRFSVSQTGDLTITNVQRSDVGYYICQTLNVAGSIITKAYLEVTDVIADRPPPVIRQGPVNQTVAVDGTFVLSCVATGSPVPTILWRKDGVLVSTQDSRIKQLENGVLQIRYAKLGDTGRYTCIASTPSGEATWSAYIEVQEFGVPVQPPRPTDPNLIPSAPSKPEVTDVSRNTVTLSWQPNLNSGATPTSYIIEAFSHASGSSWQTVAENVKTETSAIKGLKPNAIYLFLVRAANAYGISDPSQISDPVKTQDVLPTSQGVDHKQVQRELGNAVLHLHNPTVLSSSSIEVHWTVDQQSQYIQGYKILYRPSGANHGESDWLVFEVRTPAKNSVVIPDLRKGVNYEIKARPFFNEFQGADSEIKFAKTLEEAPSAPPQGVTVSKNDGNGTAILVSWQPPPEDTQNGMVQEYKVWCLGNETRYHINKTVDGSTFSVVIPFLVPGIRYSVEVAASTGAGSGVKSEPQFIQLDAHGNPVSPEDQVSLAQQISDVVKQPAFIAGIGAACWIILMVFSIWLYRHRKKRNGLTSTYAGIRKVPSFTFTPTVTYQRGGEAVSSGGRPGLLNISEPAAQPWLADTWPNTGNNHNDCSISCCTAGNGNSDSNLTTYSRPADCIANYNNQLDNKQTNLMLPESTVYGDVDLSNKINEMKTFNSPNLKDGRFVNPSGQPTPYATTQLIQSNLSNNMNNGSGDSGEKHWKPLGQQKQEVAPVQYNIVEQNKLNKDYRANDTVPPTIPYNQSYDQNTGGSYNSSDRGSSTSGSQGHKKGARTPKVPKQGGMNWADLLPPPPAHPPPHSNSEEYNISVDESYDQEMPCPVPPARMYLQQDELEEEEDERGPTPPVRGAASSPAAVSYSHQSTATLTPSPQEELQPMLQDCPEETGHMQHQPDRRRQPVSPPPPPRPISPPHTYGYISGPLVSDMDTDAPEEEEDEADMEVAKMQTRRLLLRGLEQTPASSVGDLESSVTGSMINGWGSASEEDNISSGRSSVSSSDGSFFTDADFAQAVAAAAEYAGLKVARRQMQDAAGRRHFHASQCPRPTSPVSTDSNMSAAVMQKTRPAKKLKHQPGHLRRETYTDDLPPPPVPPPAIKSPTAQSKTQLEVRPVVVPKLPSMDARTDRSSDRKGSSYKGREVLDGRQVVDMRTNPGDPREAQEQQNDGKGRGNKAAKRDLPPAKTHLIQEDILPYCRPTFPTSNNPRDPSSSSSMSSRGSGSRQREQANVGRRNIAEMQVLGGYERGEDNNEELEETES
notes: Endogenous full-length receptor in detergent cell lysate, immunoprecipitated with an anti-ROBO1 antibody; Human is inferred from the cell lines; also called R1
